Assay results: the DeepSol protein solubility set

Assay: soluble on expression in E. coli; label from the status in PepcDB or PDB records
For “DIVMTQSPLSLPVTPGEPASISCRSSQSIVHSNGHTYLEWYLQKPGQSPRLLIYQVSTRFSGVPDRFSGSGSGTDFTLKISRVEAEDVGVYYCFQASLVPLTFGQGTKLEIKRTVAAPSVFIFPPSDEQLKSGTASVVCLLNNFYPREAKVQWKVDNALQSGNSQESVTEQDSKDSTYSLSSTLTLSKADYEKHKVYACEVTHQGLSSPVTKSFNRGECAAADYKDDDD”, the “soluble on expression in E. coli” value was “soluble”.
For “MEPPKPEYAPTAHSRYNSQYFYWLFLDLFHLEPSMKLFPSLATLTLCSLMSAPLLAAEQAPELTGCAAKRQAIMNQIEQAKAHGNSNQQAGLERALSEVTAHCTDASLKKERENKVLEAKHEVSRRQADLEKAMKKGDSEKINKRKDKLAESRKELQQALDELDKLEHHHHHH”, the “soluble on expression in E. coli” value was “not soluble”.
For “EDLDCTPGFQQKVFHINQPAEFIEDQSILNLTFSDCKGNDKLRYEVSSPYFKVNSDGGLVALRNITAVGKTLFVHARTPHAEDMAELVIVGGKDIQGSLQDIFKFARTSPVPRQKRSIVVSPILIPENQRQPFPRDVGKVVDSDRPERSKFRLTGKGVDQEPKGIFRINENTGSVSMTRTLDREVIAVYQLFVETTDVNGKTLEGPVPLEVIVIDQNDNRPIFREGPYIGHVMEGSPTGTTVMRMTAFDADDPATDNALLRYNIRRQTPDKPSPNMFYIDPEKGDIVTVVSPALLDRETLENPKYELIIEAQDMAGLDVGLTGTATATIMIDDKNDHSPKFTKKEFQATVEEGAVGVIVNLTVEDKDDPATGAWRAAYTIINGNPGQSFEIHTNPQTNEGMLSVVKPLDYEISAFHTLLIKVENEDPLVPDVSYGPSSTATVHITVLDVNEGPVFYPDPMMVTRQEDLSVGSVLLTVNATDPDSLQHQTIRYSVYKDPAGWLNINPINGTVDTTAVLDRESTFVDNSVYTALFLAIDSGNPPATGTGTLLITLEDVNDNAPFIYPTVAEVCDDAKNLSVVILGASDKDLHPNTDPFKFEIHKQAVPDKVWKISKINNTHALVSLLQNLNKANYNLPIMVTDSGKPPMTNITDLRVQVCSCRNSKVDCNAAGALRFSLPSVLLLSLFSLACL”, the “soluble on expression in E. coli” value was “soluble”.
For “MSLEVLATFLYKFNGWSFLGRVLQNLSKNFDFTDREKVDTIVDIMSMLTKVVGEVSVEDSKHALTSMSAYTDDSDVLEVIFRLFEQSLHSRNIRMIESILNLLTQLVPIFSYRIWPAFSKSALLFDGTREGFATVIFGSIEMVNGDFRLTIALAKLTDALVYDCLTLDNAVPSKVKEAVLKKLVSHLIAVMESYAQEGHHHHHH”, the “soluble on expression in E. coli” value was “soluble”.
With “MGSDKIHHHHHHMKEVVKLVLLGERQNSLNLSLYFNKYPPTIIYPEVLEDRNKKLASPSGSQRKISLLVLNQGVLQFNKIKETIEKSLPIETKVKLPQKAYELYKKYYQDYTDMLNSLHAITGKFKTQSRLVVGLGDESVYETSIRLLRNYGVPYIPGSAIKGVTRHLTYYVLAEFINEGNDFYKRAKTVQDAFMKGDPKEILSNAKVPERCSRLCKEFLRIFGEKKVPEIIDELIRIFGTQKKEGEVVFFDAIPIAEEIADKPILELDIMNPHYGPYYQSGEKNVPPPGDWYDPIPIFFLTVPKDVPFLVAVGGRDRELTEKAFSLVKLALRDLGVGAKTSLGYGRLVEYV” the “soluble on expression in E. coli” value was “not soluble”.
With “MSLDRELKNLHLNISQLAALSGAHRQTVAARVKNISPAGGHESNLKLYRLTDILAELMKAPLPVDNEEMDPHARKAWYQSERDRLKFEQETGQLVPVSDVRRSFSVVVKAIVQVLETWPDRLERDRGWTASQLNEVQIVVDEIRDTLEKAVIDCCDEADEGHHHHHH” the “soluble on expression in E. coli” value was “soluble”.
For “MVSFKRYELPPLPYNYNALEPYIIEEIMKLHHQKHHNTYVKGANAALEKIEKHLKGEIQIDVRAVMRDFSFNYAGHIMHTIFWPNMAPPGKGGGTPGGRVADLIEKQFGGFEKFKALFSAAAKTVEGVGWGVLAFDPLTEELRILQVEKHNVLMTAGLVPILVIDVWEHAYYLQYKNDRGSYVENWWNVVNWDDVEKRLEQALNNAKPLYLLPQ”, the “soluble on expression in E. coli” value was “soluble”.
For “HGYVESPASRAYQCKLQLNTQCGSVQAEPQSVEGLKGFPQAGPADGHIASADKSTFFELDQQTPTRWNKLNLKTGPNSFTWKLTARHSTTSWRYFITKPNWDASQPLTRASFDLTPFCQFNDGGAIPAAQVTHQCNIPADRSGSHVILAVWDIADTANAFYQAIDVNLSK”, the “soluble on expression in E. coli” value was “soluble”.
With “MFELDLRSRQPIYEQLIDKMKEMIVRELWQPHDQLPSVRTMAKQLMINPNTIQKAYRELERDGWIYSIPGKGSFVAPRSKEPNIEAIAAVREQFVRLVKEARFLGVTNEQLWQWIREGEERGGES” the “soluble on expression in E. coli” value was “not soluble”.
For “MSTEKEKMIAGELYRSADETLSRDRLRARQLIHRYNHSLAEEHTLRQQILADLFGQVTEAYIEPTFRCDYGYNIFLGNNFFANFDCVMLDVCPIRIGDNCMLAPGVHIYTATHPIDPVARNSGAELGKPVTIGNNVWIGGRAVINPGVTIGDNVVVASGAVVTKDVPDNVVVGGNPARIIKKL”, the “soluble on expression in E. coli” value was “not soluble”.
In the case of “KNTDLVAEDSICFPIDEHTYYASKSIFQFEENGHEYLSFLDAEYSQKINIYDIKNQKLIKTILLQKEGPNGMNVLSGCHPLNLNHFIITSWNGTFSLVNDKGEIEKKFDFWEKGVNFQEFDHISFSSYSYKPAIIKDSILYFSQSFLKHPRKKSDWNKIPMFAFANLNTGKTGWSELRYPLIFNKDEDFKNVKLYDPEICYTYTGKDVVISLGQYDSIMVSSDFKHKISYNAKSRYLAHAYPHLQDGQIDLFKNIQIQGKLPHYSHLMYDKYRKVFYRFALMPDDNIKPFSNNPHQSFSIIILNKDYEIIGETKFPGNTYTHHLCFVGKKGLYISENNENNPQFDENKLVFRCFTLQDRKK”, the “soluble on expression in E. coli” value was “soluble”.
With “MPELPEVETIRRTLLPLIVGKTIEDVRIFWPNIIRHPRDSEAFAARMIGQTVRGLERRGKFLKFLLDRDALISHLRMEGRYAVASALEPLEPHTHVVFCFTDGSELRYRDVRKFGTMHVYAKEEADRRPPLAELGPEPLSPAFSPAVLAERAVKTKRSVKALLLDCTVVAGFGNIYVDESLFRAGILPGRPAASLSSKEIERLHEEMVATIGEAVMKGGSTVRTYVNTQGEAGTFQHHLYVYGRQGNPCKRCGTPIEKTVVAGRGTHYCPRCQR” the “soluble on expression in E. coli” value was “soluble”.
For “MGSDKIHHHHHHMNSPADYDPKPRRASVAVDVGGVIVGGGAPVVVQSMTNTDTADIDATVRQVAALFQAGSEMVRITVDRDESAAAVPKIRERLLRLGMDVPLIGDFHYIGHKLLADHPACAEALAKYRINPGNVGFKDKKDKQFGEIVEMAIRYDKPVRIGVNWGSLDQELLTTLMDRNKEQGFPLSARQVTREAIVQSALISAELAEEIGLPRNRIILSAKVSQVQDLIAVYSMLSERSNHALHLGLTEAGMGSKGIVASSAAMGYVLQHGIGDTIRVSLTPEPNGDRTREVQVAQELLQVMGFRQFIPVVAACPGCGRTTSTVFQELAQNIQNDIRKNMPIWREKYPGVEALNVAVMGCIVNGPGESKHADIGISLPGTGESPAAPVFIDGEKALTLRGPNIAADFEALVIDYIEKRFGQKDAAE”, the “soluble on expression in E. coli” value was “not soluble”.
For “MRVVAFVPGSISDQILFFPTLDDLKRYYPDAQIDVIVESQSKAAYRLSKSVHEVLTFDYSDHNSLADWGNLVGTIRDREYDVAMTTGESWFIGLFLWLTGIPTRIGYKGKGAGFLTNTIRRNTSQYVAAMYHDLLKPVGIKTPCPELTANVPKPDIQWAQQEQKRLGIHETGYILIYGGSSHSSQIDGADTSYPIASWQQIIQDCQHKQPELPIVLIKEADDENFVRVLLESCSNLKITSPDDIGKLTAIISGASLMLSIENGPLQLAVAVQTYTIALLSSTDADKLLPKSDKFLAIKSHSGKTVDIPPPTVLEKIWGG”, the “soluble on expression in E. coli” value was “not soluble”.
In the case of “MSVIDIHCHTAGVGAGGSGCFISTRLRESWRYRFYLASFGVTDAELEREGDGLVLRRLAERLAVSTRVQAAVVLALDGAIDSRGNLDQTRTELFIPNDFLSGQCRRYPNLLFGASVNPLRPDALDRLDAAAAASAVLVKWLPSIQGTDPADRRLVPFYRRLAELGLPLLTHTGEEQSFTRADNSLSDPNRLRLPLDEGVTVIAAHCATSGRSEGQRNRHRLLALFAAYPNLHADISSLTQVNRLGHLQWVLKHRELHERLLYGTDMPLPATALTSPWFHLFSLGPFAARRLAAIRNPWDRDVALKLALGMPEQILHNAAGLLRLALEHHHHHH”, the “soluble on expression in E. coli” value was “not soluble”.
With “SNSGEPAPVLSSPTPTDLSTFLSFPSPEKLLRLGPKVSVLIVQQTDTSDPEKVVSAFLKVASVFRDDASVKTAVLDAIDALMKKAFSCSSFNSNTFLTRLLIHMGLLKSEDKIKAIPSLHGPLMVLNHVVRQDYFPKALAPLLLAFVTKPNGALETCSFARHNLLQTLYNI” the “soluble on expression in E. coli” value was “soluble”.
In the case of “MGSDKIHHHHHHMGHATEIQVLVVDESAPSRAFIASTLENGGYIVTSVASGEEAVHEVNAAPFDILVTDINLPGMSGLNLLKLLKDSFPDLEVVIVTSNASSFTAIKALRLGAYDFIIKPVDDPAILTNIVGRAVEKQSLTRENRRLMDDMKLKNRELHDALHLMKSANRLCTAISASLDAGEILKRLVEGAVEEVKAKKGYLLLLDRDGSSFSMKVSVGVSRTLAKGFRLRHDQGIAGLVATNNKPLRIDEEVPPPLTHRMLEEDPNGELFTTPGIVTVPLQFKGRVAGVVTLSGRADGRAFTDAEIEFLTTLANHSAIALDTAGAFYKLRKGTS”, the “soluble on expression in E. coli” value was “not soluble”.
With “MLLDSIFFRTHPDWIVCCRFLQGVGTDREKREENGRKKTVKITIFSDCMLWANPISLCIRHRAVFNNRNLRMDFSSYTILCLNRLDAWIPAFGIPK” the “soluble on expression in E. coli” value was “not soluble”.
For “KPGFQLGVTVDYEIGKHWMLMSGLSWLQNRSTMKMMDHMVTYFPKTEIKMNNLILPLKMGYNIRVSDKLSLIPSVGVYASYGFGAGNCSLDVIHQEGDNITTEPAKWKPLDGFSYKAGEPNNSGNLQAFRRWDYGGIVGMKAVIADHYTISFDYRVGIKKIQAQNGLRNSTFQFSVGYRF”, the “soluble on expression in E. coli” value was “not soluble”.
For “MKAVVPTGKIYLGSPFYSDAQRERAAKAKELLAKNPSIAHVFFPFDDGFTDPDEKNPEIGGIRSMVWRDATYQNDLTGISNATCGVFLYDMDQLDDGSAFEIGFMRAMHKPVILVPFTEHPEKEKKMNLMIAQGVTTIIDGNTEFEKLADYNFNECPSNPVRGYGIY”, the “soluble on expression in E. coli” value was “soluble”.
With “VTQQSRQLLDVTRIYYEPAAAELPRGRQVLERWPDATLVPVESHWRIPELHGDETNVDRWVRIKREALVLGIKKSLTAKPNGRSADFIAPSTANGCAMACAYCYVPRRKGYSNPITVFTNIEQITGYLERHVHRQGVKPEPNQCDPASWVYDLGENSDCSVDAEVSDNVDDLIALFRGLPTAKASFATKHVNRRLLTLDPQGRTRVRFSLMPARVAKLLDVRTSPVPERLGALDDFVAAGYEVHVNLSPVVVHEDWLPVWAALLDELGDATNDATKAQLQAEVIFLTHEENLHRVNLGWHPKAEDLLWRPAMQETKRSQNGGVNVRYRTGDKGRYVQQLLALIEERAPYLRVRYAF” the “soluble on expression in E. coli” value was “soluble”.
For “LMKLYSLSVFYKGEPKAVLLKAAYDVSSFSFFQRSSVQEFMTFTSQLIVERSAKGSRASVKEQEYLCHVYVRSDSLAGVVIADSEYPSRVAFTLLEKVLDEFSKQVDRIDWPVGSPATIHYTALDGHLSRYQNPREADPMSKVQAELDETKIILHNTMESLLERGEKLDDLVSKSEVLGTQSKAFYKTARKQNSCCAIM”, the “soluble on expression in E. coli” value was “soluble”.
For “MGSDKIHHHHHHMMTSSEIKRIATYVEKGGVGKTTSAAHIAVAAHNRGHEVLLVDLAGTQNDLATHFGLSIVDEEATDDGVSIDAPISAVFGDDWAFLRDNIDDLLDRMTFPTDEGPDLIPADPGLGGADNNLANVPLEERYQKLDGFVEDLVADKYDLVIFDLPGKEDNIALNGLFAARNVVAPLKPGAFERDQLQKLDATLEEISADLDVDLGLALIIPTIISSQETLSESFVEYVTEEYPEIVGEPVTKTADIGNNQNAGRTLFAVPDDELYATGKRAREAYSANTEQLLSRLTDR”, the “soluble on expression in E. coli” value was “not soluble”.
For “MDNVDFSKDIRDYSGLELAFLGDAIWELEIRKYYLQFGYNIPTLNKYVKAKVNAKYQSLIYKKIINDLDEEFKVIGKRAKNSNIKTFPRSCTVMEYKEATALEAIIGAMYLLKKEEEIKKIINIVIKGELEHHHHHH”, the “soluble on expression in E. coli” value was “soluble”.
